How the values were obtained:
human glucagon receptor = human glucagon receptor (human, UniProt P47871 26-477); assay: cell-based or functional assay
human GLP-1 receptor = human GLP-1 receptor (human, UniProt P43220 24-463); assay: cell-based or functional assay

Chain of human glucagon receptor (P47871 26-477): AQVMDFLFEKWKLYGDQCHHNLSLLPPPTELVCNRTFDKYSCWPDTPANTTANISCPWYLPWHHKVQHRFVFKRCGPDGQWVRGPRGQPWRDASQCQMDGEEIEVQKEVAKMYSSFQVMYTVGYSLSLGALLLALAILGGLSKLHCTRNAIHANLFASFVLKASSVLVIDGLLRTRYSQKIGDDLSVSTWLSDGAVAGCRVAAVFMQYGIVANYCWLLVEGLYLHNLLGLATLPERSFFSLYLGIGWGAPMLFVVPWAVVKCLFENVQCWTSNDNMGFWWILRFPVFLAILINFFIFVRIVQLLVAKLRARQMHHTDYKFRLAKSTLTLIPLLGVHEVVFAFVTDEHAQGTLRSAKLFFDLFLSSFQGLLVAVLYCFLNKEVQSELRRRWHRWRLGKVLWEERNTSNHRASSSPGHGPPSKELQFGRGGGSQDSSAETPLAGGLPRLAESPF

Row | Molecule | EC50 human glucagon-R (CRE-luciferase reporter cells) (human glucagon receptor) | % RLUGLP-1 (CRE-luciferase reporter, against the 100 ng/ml GLP-1 positive control) (human GLP-1 receptor) | % RLUGlucagon (CRE-luciferase reporter, against the 100 ng/ml glucagon positive control) (human glucagon receptor)
1 | GLP-1 (from UniProt P01275 92-128) (ligand) | > 1 mM |  | 
2 | HSQGTFTSDYSKYLDEQAAKEFIAWLIAGGPSSGAPPPS [GLP-1/glucagon dual agonist polypeptide expressed by clone 3D9] |  | 286% | 197%
3 | HSQGTFTSDYSKYLDEQRAKEFVAWLIAGGPSSGAPPPS [GLP-1/glucagon dual agonist polypeptide expressed by clone 12C6] |  | 183% | 112%
4 | HSQGTFTSDYSKYLDEQRAKDFIAWLIAGGPSSGAPPPS [GLP-1/glucagon dual agonist polypeptide expressed by clone 6B7] |  | 123% | 156%
